In article PMC11661604:
pKd: −log10 of the molar value.

molecular target: native Semliki Forest virus (SFV) virion (Semliki Forest virus); test: SPR; Biacore 8K; purified SFV virions amine-coupled on a CM5 chip (more than 2,500 RU); Fc fusions flowed in gradient concentrations at 30 μL/min in PBS with 0.05% Tween-20, pH 7.4, 25°C; 1:1 binding model

In the case of “LA1-3-Fc (from UniProt P98155-1 31-152) (Fc fusion)”, the increase in KD compared to LA2-3 was 100 nM.

Compared with “LA2-3-Fc (from UniProt P98155-1 69-152) (Fc fusion)”, “LA2-5-Fc (from UniProt P98155-1 69-237) (Fc fusion)” is 0.22 log units higher in pKd: 6.35 for the first, 6.57 for the second.

Compared with “LA3-4-Fc (from UniProt P98155-1 110-191) (Fc fusion)”, “LA3-5-Fc (from UniProt P98155-1 110-237) (Fc fusion)” is 0.53 log units higher in pKd: 5.83 for the first, 6.36 for the second.

Going from “LA3-Fc (from UniProt P98155-1 110-152) (Fc fusion)” to “VLDLRLBD-Fc (ligand-binding domain of human VLDLR, LA1-8, Fc fusion) (from UniProt P98155-1 31-355)”, the pKd rises from 6.04 to 6.60 (0.56 log units). The second binds more tightly here.
